Measured values published in US20120100142A1.

How the values were obtained:
Test in all cases: cell-based or functional assay
[1] = target: HA of A/Mexico/4108/09 (2009 A (H1N1)) virus (influenza A/Mexico/4108/2009 (H1N1) virus)
[2] = target: HA of influenza A/Swine/Iowa/15/30 (H1N1) virus (influenza A/Swine/Iowa/15/30 (H1N1) virus)
[3] = target: HA of influenza A/USSR/92/77 (H1N1) virus (influenza A/USSR/92/77 (H1N1) virus)
[4] = target: HA of influenza A/Weiss/43 (H1N1) virus (influenza A/Weiss/43 (H1N1) virus)

Substance mAb 1F1 (antibody) has an HAI, specific activity of indicated mAb [1] of over 5 µg/mL, a Neut Ab, specific activity of indicated mAb [1] of over 5 µg/mL and a Specific HAI activity [2] of 0.04 µg/mL. The neutralizing activity, specific activity [3] was 0.88 µg/mL and the neutralizing activity, specific activity [4] was 1.8 µg/mL.
